First the molecules themselves.
T1: Recombinant human sgM-CSF (human, UniProt P09603 33-255)
T1 sequence: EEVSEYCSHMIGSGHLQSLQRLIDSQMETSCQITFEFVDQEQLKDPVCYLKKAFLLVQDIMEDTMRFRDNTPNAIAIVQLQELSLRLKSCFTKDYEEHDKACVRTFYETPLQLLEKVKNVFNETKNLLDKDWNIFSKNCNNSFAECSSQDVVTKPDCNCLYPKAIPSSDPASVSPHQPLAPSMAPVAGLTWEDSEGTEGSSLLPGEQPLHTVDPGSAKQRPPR

T2: Recombinant cynomolgus monkey sgM-CSF (cynomolgus (Macaca fascicularis), UniProt P09603 33-255 (human entry), limits assumed)
T2 chain: T1 sequence with V186M, E192D

T3: human cell-surface M-CSF on stably transfected CHO cells (human, UniProt P09603 33-554)
T3 construct: also called csM-CSF
T3 sequence: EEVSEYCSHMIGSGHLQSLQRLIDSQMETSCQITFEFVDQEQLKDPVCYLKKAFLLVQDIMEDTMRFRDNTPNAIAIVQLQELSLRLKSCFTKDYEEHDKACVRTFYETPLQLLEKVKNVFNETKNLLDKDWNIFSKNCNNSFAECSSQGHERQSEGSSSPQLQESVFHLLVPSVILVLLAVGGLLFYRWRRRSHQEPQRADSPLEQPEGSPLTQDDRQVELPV

B1: HeRX1-10G1, IgG1 (antibody, V domains shown)
VH: QVQLQESGPGLVKPSQTLSLTCTVSDYSITSDYAWNWIRQFPGKGLEWMGYISYSGSTSYNPSLKSRITISRDTSKNQFSLQLNSVTAADTAVYYCASFDYAHAMDYWGQGTTVTVSS
VL: DIVLTQSPAFLSVTPGEKVTFTCQASQSIGTSIHWYQQKTDQAPKLLIKYASESISGIPSRFSGSGSGTDFTLTISSVEAEDAADYYCQQINSWPTTFGGGTKLEIKR
notes: tested as IgG1
B2: HeRX1-10G1, IgG1_D265A (antibody, V domains shown)
VH: B1 VH
VL: B1 VL
notes: Prior art antibody; tested as IgG1 with D265A in the Fc (EU index)
B3: Romaine, IgG1_D265A (antibody, V domains shown)
VH: EVQLVESGGGLVKPGGSLRLSCAASGFTFSIYAMSWVRQAPGKGLEWVGRIKSNADGGTTEYAAPVKGRFTISRDDSKNTLYLQMNSLKTEDTAVYYCARMRYYSDLYFDPWGQGTLVTVSS
VL: DIELTQPPSVSVSPGQTASITCSGDAIGSKYVHWYQQKPGQAPVLVISKDNKRPSGIPERFSGSNSGNTATLTISGTQAEDEADYYCQTATVSSYWWVFGGGTKLTVLG
notes: tested as IgG1 with D265A in the Fc (EU index); Parental antibody of Satine, Servane
B4: Satine, IgG1_D265A (antibody, V domains shown)
VH: B3 VH
VL: SYELTQPPSVSVSPGQTASITCSGDKLGQKYVSWYQQKPGQSPVLVISQDRKRPSGIPERFSGSNSGNTATLTISGTQAEDEADYYCQTWTHLQWVFGGGTKLTVLG
notes: tested as IgG1 with D265A in the Fc (EU index)
B5: Servane, IgG1_D265A (antibody, V domains shown)
VH: B3 VH with I31T, M34I, R50F, N54K, A55H, D56N, G57S
VL: B4 VL
notes: as for B4
B6: Blanche, IgG1_D265A (antibody, V domains shown)
VH: QVQLQQSGPGLVKPSQTLSLTCAISGDSVSSNSAAWNWIRQSPSRGLEWLGRTYYRSKWKHEYAMSVKSRITINPDTSKNQFSLQLNSVTPEDTAVYYCARDRYYYSAFDYWGQGTLVTVSS
VL: DIALTQPASVSGSPGQSITISCTGTSSDVGGYNSVSWYQQHPGKAPKLMIYAVSNRPSGVSNRFSGSKSGNTASLTISGLQAEDEADYYCASYDERFTRVFGGGTKLTVLG
notes: tested as IgG1 with D265A in the Fc (EU index); Parental antibody of Caline, Camille, Celine
B7: Celine, IgG1_D265A (antibody, V domains shown)
VH: B6 VH with S31T, N32S, M65V
VL: B6 VL with D1Q, I2S, M49I
notes: as for B4
B8: Laurine, IgG1_D265A (antibody, V domains shown)
VH: B6 VH with H61K, M65Q
VL: B6 VL
notes: tested as IgG1 with D265A in the Fc (EU index); Parental antibody of Madeleine, Maelle, Meriem
B9: Camille, IgG1_D265A (antibody, V domains shown)
VH: B6 VH with D27E, S31T, N32S, M65V
VL: B6 VL with D1Q, I2S, M49L
notes: as for B4
B10: Maelle, IgG1_D265A (antibody, V domains shown)
VH: B6 VH with D27E, S31T, N32S, H61K, M65Q
VL: B6 VL with D1Q, I2S, M49I
notes: as for B4
B11: Meriem, IgG1_D265A (antibody, V domains shown)
VH: B6 VH with S31T, N32S, H61K, M65Q
VL: B6 VL with D1Q, I2S, M49I
notes: as for B4
B12: Madeleine, IgG1_D265A (antibody, V domains shown)
VH: B6 VH with H61K, M65Q
VL: B6 VL with D1Q, I2S
notes: as for B4
B13: Caline, IgG1_D265A (antibody, V domains shown)
VH: B6 VH
VL: B6 VL with D1Q, I2S
notes: as for B4
B14: 8.10.3F, IgG2 (antibody, V domains shown)
VH: EVQLVESGGGLVQPGGSLRLSCAASGFTFSSFSMTWVRQAPGKGLEWVSYISSRSSTISYADSVKGRFTISRDNAKNSLYLQMNSLRDEDTAVYYCARDPLLAGATFFDYWGQGTLVTVSS
VL: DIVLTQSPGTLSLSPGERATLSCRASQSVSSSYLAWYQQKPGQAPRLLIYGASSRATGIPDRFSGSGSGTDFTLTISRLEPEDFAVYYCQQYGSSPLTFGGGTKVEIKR
notes: tested as IgG2; also called 8.10.F3
B15: 8.10.3F, IgG1_D265A (antibody, V domains shown)
VH: B14 VH
VL: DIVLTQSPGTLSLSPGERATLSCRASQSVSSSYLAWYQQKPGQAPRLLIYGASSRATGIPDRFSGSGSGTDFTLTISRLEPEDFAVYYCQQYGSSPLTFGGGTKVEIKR
notes: Prior art antibody; tested as IgG1 with D265A in the Fc (EU index); also called 8.10.F3

Changes are numbered by the printed parent chain. Numbers in names are those of the source.

The first assay deals with T1, Recombinant human sgM-CSF. Briefly: cell-based or functional assay.
Take B1: the “IC50, inhibition of M-NFS-60 proliferation induced by recombinant human M-CSF (9.5 pM)” value is 3.6 pM.

B2: the “IC50, inhibition of M-NFS-60 proliferation induced by recombinant human M-CSF (9.5 pM)” value stood at 3 pM.

Regarding B3, the “IC50, inhibition of M-NFS-60 proliferation induced by recombinant human M-CSF (9.5 pM)” value was determined as 8.4 pM.

Consider B4, for which the “IC50, inhibition of M-NFS-60 proliferation induced by recombinant human M-CSF (9.5 pM)” value came to 5.3 pM.

With B5, the “IC50, inhibition of M-NFS-60 proliferation induced by recombinant human M-CSF (9.5 pM)” value worked out at 11.8 pM.

Regarding B6, the “IC50, inhibition of M-NFS-60 proliferation induced by recombinant human M-CSF (9.5 pM)” value was found to be 2.9 pM.

Consider B7, for which the “IC50, inhibition of M-NFS-60 proliferation induced by recombinant human M-CSF (9.5 pM)” value was found to be 2.7 pM.

Consider B8, for which the “IC50, inhibition of M-NFS-60 proliferation induced by recombinant human M-CSF (9.5 pM)” value worked out at 2.6 pM.

B9: the “IC50, inhibition of M-NFS-60 proliferation induced by recombinant human M-CSF (9.5 pM)” value stood at 2.3 pM.

B10: the “IC50, inhibition of M-NFS-60 proliferation induced by recombinant human M-CSF (9.5 pM)” value came out at 2.7 pM.

For the molecule B11, the “IC50, inhibition of M-NFS-60 proliferation induced by recombinant human M-CSF (9.5 pM)” value was 3.1 pM.

In the case of B12, the “IC50, inhibition of M-NFS-60 proliferation induced by recombinant human M-CSF (9.5 pM)” value turned out to be 3 pM.

As to B13, the “IC50, inhibition of M-NFS-60 proliferation induced by recombinant human M-CSF (9.5 pM)” value was determined as 3.1 pM.

As to B14, the “IC50, inhibition of M-NFS-60 proliferation induced by recombinant human M-CSF (9.5 pM)” value was found to be 71.1 pM.

For the molecule B15, the “IC50, inhibition of M-NFS-60 proliferation induced by recombinant human M-CSF (9.5 pM)” value amounted to 14.9 pM.

For the next assay, the target named is T2, Recombinant cynomolgus monkey sgM-CSF. The experiment in a line: cell-based or functional assay.
Regarding B1, the “IC50, inhibition of M-NFS-60 proliferation induced by recombinant cynomolgus M-CSF (9.5 pM)” value turned out to be 4.1 pM.

Take B2: the “IC50, inhibition of M-NFS-60 proliferation induced by recombinant cynomolgus M-CSF (9.5 pM)” value worked out at 3.5 pM.

Regarding B3, the “IC50, inhibition of M-NFS-60 proliferation induced by recombinant cynomolgus M-CSF (9.5 pM)” value amounted to 8.1 pM.

Regarding B4, the “IC50, inhibition of M-NFS-60 proliferation induced by recombinant cynomolgus M-CSF (9.5 pM)” value is 5.4 pM.

As for B5, the “IC50, inhibition of M-NFS-60 proliferation induced by recombinant cynomolgus M-CSF (9.5 pM)” value turned out to be 13.4 pM.

Regarding B6, the “IC50, inhibition of M-NFS-60 proliferation induced by recombinant cynomolgus M-CSF (9.5 pM)” value amounted to 3.3 pM.

As for B7, the “IC50, inhibition of M-NFS-60 proliferation induced by recombinant cynomolgus M-CSF (9.5 pM)” value came out at 3 pM.

As to B8, the “IC50, inhibition of M-NFS-60 proliferation induced by recombinant cynomolgus M-CSF (9.5 pM)” value worked out at 2.8 pM.

For B9, the “IC50, inhibition of M-NFS-60 proliferation induced by recombinant cynomolgus M-CSF (9.5 pM)” value is 2.6 pM.

In the case of B10, the “IC50, inhibition of M-NFS-60 proliferation induced by recombinant cynomolgus M-CSF (9.5 pM)” value is 2.3 pM.

As to B11, the “IC50, inhibition of M-NFS-60 proliferation induced by recombinant cynomolgus M-CSF (9.5 pM)” value was found to be 2.8 pM.

Consider B12, for which the “IC50, inhibition of M-NFS-60 proliferation induced by recombinant cynomolgus M-CSF (9.5 pM)” value amounted to 2.8 pM.

In the case of B13, the “IC50, inhibition of M-NFS-60 proliferation induced by recombinant cynomolgus M-CSF (9.5 pM)” value was determined as 4.3 pM.

As for B14, the “IC50, inhibition of M-NFS-60 proliferation induced by recombinant cynomolgus M-CSF (9.5 pM)” value is 84.6 pM.

As for B15, the “IC50, inhibition of M-NFS-60 proliferation induced by recombinant cynomolgus M-CSF (9.5 pM)” value is 16.5 pM.

The next assay addresses T3, human cell-surface M-CSF on stably …. The experiment in a line: FACS, CHO cells stably transfected with M-CSF (n = 3). For orientation: Flow cytometry measures light scatter and fluorescence of single cells or particles in a stream.
Broadly, the EC50 is the midpoint of the concentration-response curve. Consider B1, for which the EC50 was 12600 pM.

With B2, the concentration for a half-maximal effect (EC50) turned out to be 8900 pM.

B3: the EC50 turned out to be 16400 pM.

The molecule B4 returned an EC50 of 11300 pM.

The molecule B5 yielded an EC50 of 21300 pM.

With B6, it took 7500 pM to reach a half-maximal effect (EC50).

In the case of B7, the EC50 stood at 9700 pM.

B8 came in with an EC50 of 11200 pM.

On to B9, for which the response was half-maximal at 6100 pM (EC50).

B10 yielded an EC50 of 10200 pM.

As for B11, a half-maximal response (EC50) required 12300 pM.

With B12, the EC50 worked out at 6400 pM.

B13 showed an EC50 of 9800 pM.

Take B14: a half-maximal response (EC50) required 23200 pM.

For the molecule B15, a half-maximal effect (EC50) was put at 8900 pM.

For a further assay, the target named is T1, Recombinant human sgM-CSF. The experiment in a line: MSD receptor binding inhibition: 12.5 pM human sgM-CSF preincubated with antibody, binding to coated human CSF1-R-Fc. The method, then:
(§1) Complexes were then transferred to 384 well MSD plates coated with 2 μg/ml of the corresponding receptor. Plates were then washed and incubated with the streptavidin/ECL conjugate for 2 h with shaking at room temperature. 35 μl MSD read buffer T with surfactant was then added per well and subsequently measured using MSD Sector Imager 6000.
Broadly, the IC50 is the concentration that inhibits the measured activity by half. Regarding B1, the IC50 worked out at 26.5 pM.

For B2, the IC50 came to 28 pM.

Turning to B3, the IC50 came to 9.1 pM.

Regarding B4, the IC50 came to 15.1 pM.

Regarding B5, the IC50 was found to be 31.3 pM.

With B6, the IC50 was determined as 6.2 pM.

With B7, the IC50 stood at 4.7 pM.

Take B8: the IC50 turned out to be 4.9 pM.

With B9, the IC50 was found to be 4.4 pM.

As for B10, the IC50 was found to be 5.3 pM.

Regarding B11, the IC50 was 7 pM.

Take B12: the IC50 came to 5.6 pM.

Take B13: the IC50 stood at 6.1 pM.

B14: the IC50 came to 31.4 pM.

For the molecule B15, the IC50 worked out at 19.2 pM.

Another assay addresses T2, Recombinant cynomolgus monkey sgM-CSF. The experiment in a line: MSD receptor binding inhibition: 12.5 pM cynomolgus sgM-CSF preincubated with antibody, binding to coated human CSF1-R-Fc. The method, then:
as §1
As for B1, the IC50 amounted to 27.6 pM.

As for B2, the half-inhibitory concentration (IC50) came out at 18 pM.

Consider B3, for which the IC50 was determined as 9.1 pM.

B4: the IC50 worked out at 13.5 pM.

As to B5, the IC50 worked out at 11.8 pM.

Consider B6, for which the IC50 was determined as 6.6 pM.

Take B7: the IC50 came to 6.9 pM.

Consider B8, for which the IC50 stood at 4.3 pM.

In the case of B9, the IC50 came to 5.9 pM.

As for B10, the IC50 amounted to 6.4 pM.

In the case of B11, the IC50 was determined as 7.3 pM.

For the molecule B12, the IC50 worked out at 5.6 pM.

As to B13, the IC50 amounted to 6.3 pM.

As for B14, the IC50 stood at 20.7 pM.

B15: the IC50 was found to be 14.6 pM.

Values taken from patent publication US20180057581A1 (MorphoSys, published 2018).
